Positions count from the first letter of the chain named.

Data on three molecules can be found in publication PMC11775580.

Assay [1] addresses pSer2 CTD peptide (RNA polymerase II CTD, about two heptads, phosphorylated at Ser2). The experiment in a line: fluorescence polarisation. A general note: Fluorescence polarisation rises when a labelled molecule tumbles more slowly, as on binding a larger partner.
Assay [2] concerns the target pSer7 CTD peptide (RNA polymerase II CTD, about two heptads, phosphorylated at Ser7). Nature of the assay: fluorescence polarisation.

B1: RPRD1B CID domain (residues 2-133), wild type (domain or fragment)
chain: SSFSESALEKKLSELSNSQQSVQTLSLWLIHHRKHAGPIVSVWHRELRKAKSNRKLTFLYLANDVIQNSKRKGPEFTREFESVLVDAFSHVAREADEGCKKPLERLLNIWQERSVYGGEFIQQLKLSMEDSK
Usually Kd stands for the constant that tells how readily two partners part at equilibrium. A lower Kd goes with higher affinity. B1: the dissociation constant (Kd) turned out to be 22.5 µM in assay [1] and 32.5 µM in assay [2].

B2: RPRD1B CID domain (residues 2-133), Tyr61 to alanine (domain or fragment)
chain: B1 chain with Y60A
B2 showed a Kd in assay [1] of 37.8 µM.

B3: RPRD1B CID domain (residues 2-133), Arg114A mutant (domain or fragment)
chain: B1 chain with R113A
Consider B3, for which, in assay [1], the Kd turned out to be 37.9 µM.
